Results reported in paper PMC12412786 (Nucleic Acids Research, 2025).
Several values for one entry are separate records, joined by “and”; a condition that tells them apart may be missing. Identical values can stand only once.

Target: the molecule itself
Assay: mass photometry

B1: murine PARP2 (poly(ADP-ribose) polymerase 2) (enzyme)
chain: MAPRRQRSGSGRRVLNEAKKVDNGNKATEDDSPPGKKMRTCQRKGPMAGGKDADRTKDNRDSVKTLLLKGKAPVDPECAAKLGKAHVYCEGDDVYDVMLNQTNLQFNNNKYYLIQLLEDDAQRNFSVWMRWGRVGKTGQHSLVTCSGDLNKAKEIFQKKFLDKTKNNWEDRENFEKVPGKYDMLQMDYAASTQDESKTKEEETLKPESQLDLRVQELLKLICNVQTMEEMMIEMKYDTKRAPLGKLTVAQIKAGYQSLKKIEDCIRAGQHGRALVEACNEFYTRIPHDFGLSIPPVIRTEKELSDKVKLLEALGDIEIALKLVKSERQGLEHPLDQHYRNLHCALRPLDHESNEFKVISQYLQSTHAPTHKDYTMTLLDVFEVEKEGEKEAFREDLPNRMLLWHGSRLSNWVGILSHGLRVAPPEAPITGYMFGKGIYFADMSSKSANYCFASRLKNTGLLLLSEVALGQCNELLEANPKAQGLLRGKHSTKGMGKMAPSPAHFITLNGSTVPLGPASDTGILNPEGYTLNYNEFIVYSPNQVRMRYLLKIQFNFLQLW
- stoichiometry N: 2 and 3
